Experimental findings from publication PMC4123461 (Experimental eye research, 2014) are described below.

Where a chain is given by its changes, count along the chain named. Names and notes keep the numbering of the source.

This assay addresses T1, Best1-CFP (human, UniProt O76090 1-585).
T1 sequence (looked up): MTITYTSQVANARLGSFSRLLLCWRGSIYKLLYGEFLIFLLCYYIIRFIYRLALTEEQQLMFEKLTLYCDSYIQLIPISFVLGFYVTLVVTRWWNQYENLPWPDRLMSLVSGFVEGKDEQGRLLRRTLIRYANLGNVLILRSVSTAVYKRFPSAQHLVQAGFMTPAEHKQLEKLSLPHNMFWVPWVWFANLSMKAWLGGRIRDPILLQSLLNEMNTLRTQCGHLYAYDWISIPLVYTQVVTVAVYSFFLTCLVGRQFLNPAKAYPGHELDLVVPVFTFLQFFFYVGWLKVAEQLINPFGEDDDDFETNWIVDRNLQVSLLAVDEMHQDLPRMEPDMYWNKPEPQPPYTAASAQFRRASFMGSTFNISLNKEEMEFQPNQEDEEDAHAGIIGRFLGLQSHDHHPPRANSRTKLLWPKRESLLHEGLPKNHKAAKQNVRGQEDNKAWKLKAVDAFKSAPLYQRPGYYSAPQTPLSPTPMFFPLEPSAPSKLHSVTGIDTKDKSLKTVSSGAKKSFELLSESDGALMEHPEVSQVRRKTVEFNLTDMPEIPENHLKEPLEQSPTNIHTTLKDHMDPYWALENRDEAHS
Nature of the assay: FRET or BRET. (In BRET a luciferase serves as donor, and the signal depends on an acceptor being close.)

B1: WT Best1-YFP (natural protein, human, UniProt O76090 1-585, looked up)
chain: T1 sequence (looked up)
For B1, the “FRET efficiency (%E)” value came to 13.6%.

B2: A146L Best1-YFP (natural protein, human, UniProt O76090 1-585, looked up)
chain: T1 sequence (looked up) with A146L
Consider B2, for which the “FRET efficiency (%E)” value is 14.8%.

B3: N179del Best1-YFP (natural protein, human, UniProt O76090 1-585, looked up)
chain: MTITYTSQVANARLGSFSRLLLCWRGSIYKLLYGEFLIFLLCYYIIRFIYRLALTEEQQLMFEKLTLYCDSYIQLIPISFVLGFYVTLVVTRWWNQYENLPWPDRLMSLVSGFVEGKDEQGRLLRRTLIRYANLGNVLILRSVSTAVYKRFPSAQHLVQAGFMTPAEHKQLEKLSLPHMFWVPWVWFANLSMKAWLGGRIRDPILLQSLLNEMNTLRTQCGHLYAYDWISIPLVYTQVVTVAVYSFFLTCLVGRQFLNPAKAYPGHELDLVVPVFTFLQFFFYVGWLKVAEQLINPFGEDDDDFETNWIVDRNLQVSLLAVDEMHQDLPRMEPDMYWNKPEPQPPYTAASAQFRRASFMGSTFNISLNKEEMEFQPNQEDEEDAHAGIIGRFLGLQSHDHHPPRANSRTKLLWPKRESLLHEGLPKNHKAAKQNVRGQEDNKAWKLKAVDAFKSAPLYQRPGYYSAPQTPLSPTPMFFPLEPSAPSKLHSVTGIDTKDKSLKTVSSGAKKSFELLSESDGALMEHPEVSQVRRKTVEFNLTDMPEIPENHLKEPLEQSPTNIHTTLKDHMDPYWALENRDEAHS
Regarding B3, the “FRET efficiency (%E)” value worked out at 12.4%.
